Results published in patent US9744212B2, “Galectin-3C combination therapy for human cancer” (Texas Tech University System, priority 2011, dated 2017).

Experiments:
[1] = system: AKT/IKK pathway; assay: Western blot of proteins in the NF-κB AKT/IKK pathway; format: cell-based; conditions: U266 and primary human MM cells; Gal-3C 10 μg/ml
From the text: EXAMPLE 4 indicates Gal-3C impairs NF-kB activation induced by Bonin U266 cells. Recently, it has been shown that the mechanism of action of Boris more complex than originally thought and can be differ depending on the cell type. […] This effect potentially reduces the therapeutic effect of Bonin MM, because NF-kB activation in plasma cells is associated with anti-apoptotic pathways (91). […] Comparison of NFkB expression by Western blot. […] Equal amounts of lysates of human primary MM and U266 cells and media were fractionated by SDS-PAGE and transferred to nitrocellulose membranes. Primary antibodies were visualized with HRP-coupled goat anti-rabbit or anti-mouse IgGs using an ATK/IKK kit (Cell Signaling Technology, Danvers, Mass.).
Upon IKK-mediated phosphorylation, IKBα dissociates from the NF-kB complex (p50 and p65 proteins). Free NF-kB is then phosphorylated on serine 529 of the p65 subunit and enters the nucleus where it regulates gene transcription.

[2] = system: human breast cancer; conditions: mouse model of human breast cancer, reference (60); cited from earlier work

B1: Gal-3C: N-terminally truncated human galectin-3 consisting of 143 carboxy-terminal amino acid residues, SEQ ID NO: 1 (protein)
chain: GAPAGPLIVPYNLPLPGGVVPRMLITILGTVKPNANRIALDFQRGNDVAFHFNPRFNENNRRVIVCNTKLDNNWGREERQSVFPFESGKPFKIQVLVEPDHFKVAVNDAHLLQYNHRVKKLNEISKLGISGDIDITSASYTMI
In the case of B1, the “P-p65, P-Akt, P-IKKβ and P-IKKα (activation of the AKT/IKK pathway)” value [1] is given as “inhibited”, the adverse side effects [2] is given as “no evidence of adverse side effects” and the “tumor growth and metastasis” value [2] is given as “inhibited tumor growth and metastasis”.
